Results from US20250025549A1.

Key:
[1] = molecular target: dipeptidyl peptidase IV (DPP4), the MERS-CoV receptor, His-tagged (human) (UniProt P27487); experiment: ELISA, spike coated, His-tagged hDPP4 titrated
[2] = molecular target: dipeptidyl peptidase IV (DPP4), the MERS-CoV receptor, His-tagged (human) (UniProt P27487)

dipeptidyl peptidase IV (DPP4), the MERS-CoV receptor, His-tagged (human), sequence (P27487 29-766 limits assumed): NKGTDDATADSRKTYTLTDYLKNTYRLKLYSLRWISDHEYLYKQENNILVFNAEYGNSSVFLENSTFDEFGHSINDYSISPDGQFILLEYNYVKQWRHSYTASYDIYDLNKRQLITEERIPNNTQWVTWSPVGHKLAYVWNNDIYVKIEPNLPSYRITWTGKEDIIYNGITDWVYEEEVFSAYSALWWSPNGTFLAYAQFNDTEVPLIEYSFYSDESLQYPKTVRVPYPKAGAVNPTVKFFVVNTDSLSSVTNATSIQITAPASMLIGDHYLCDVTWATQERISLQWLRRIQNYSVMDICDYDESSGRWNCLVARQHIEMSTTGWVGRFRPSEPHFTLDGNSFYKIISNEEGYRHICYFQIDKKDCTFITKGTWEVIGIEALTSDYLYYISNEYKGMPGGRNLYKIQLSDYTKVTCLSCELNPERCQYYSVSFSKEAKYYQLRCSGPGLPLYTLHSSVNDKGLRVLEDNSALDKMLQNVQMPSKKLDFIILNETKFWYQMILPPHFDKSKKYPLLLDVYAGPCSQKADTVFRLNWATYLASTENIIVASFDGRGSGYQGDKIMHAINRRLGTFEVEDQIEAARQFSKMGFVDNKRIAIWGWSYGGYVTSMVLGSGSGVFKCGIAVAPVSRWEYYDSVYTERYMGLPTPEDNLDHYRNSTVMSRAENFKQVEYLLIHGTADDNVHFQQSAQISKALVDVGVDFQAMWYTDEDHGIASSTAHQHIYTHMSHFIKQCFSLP

Question: “wild-type BV2361 protein (SEQ ID NO: 2), native SARS-CoV-2 Spike (S) polypeptide (from UniProt P0DTC2 14-1273) (other; other documents disagree on this pair)” was tested. Which EC50 [1] did it give?
Answer: The EC50 was greater than 5 µg/mL.

Question: What about the IC50 [2] of the same substance?
Answer: Its IC50 is greater than 5 µg/mL.
